# ± gives the uncertainty stated by the source.
# B1: Unconventional myosin-Ie, residues 1051 to 1108; numbered along this chain, Q12965 (parent)
# chain: PQVPQCKALYAYDAQDTDELSFNANDIIDIIKEDPSGWWTGRLRGKQGLFPNNYVTKI
# B2: Histone-lysine N-methyltransferase SETD2, residues 2382 to 2430; numbered along this chain, Q9BYW2 (parent)
# chain: SPPKPKTIVLPPNWKTARDPEGKIYYYHVITRQTQWDPPTWESPGDDAS
# Variants of: B1
# Experiment: abundance fitness (aPCA) (normalised: wild type 0, dead -1); higher = more abundant; growth selection in yeast, the domain comes from the species named
# Conditions: Homo sapiens
row,Variant,abundance fitness
1,A14R,-0.377 ± 0.035
2,A14W,-1.13 ± 0.31
3,G37H,-0.883 ± 0.21
4,D18A,-0.162 ± 0.056
5,D18M,-0.091 ± 0.045
6,D18P,0.089 ± 0.085
7,D18I,-0.197 ± 0.14
8,D29I,-0.345 ± 0.15
9,D29T,-0.062 ± 0.039
10,D29H,-0.193 ± 0.12
11,D29E,-0.072 ± 0.044
12,D29V,-0.303 ± 0.053
13,E33C,-0.231 ± 0.041
14,E33M,-0.02 ± 0.086
15,E33L,-0.343 ± 0.052
16,Y10F,-0.151 ± 0.069
17,Y10A,-0.186 ± 0.045
18,F22C,-0.895 ± 0.13
19,F22D,-0.748 ± 0.45
20,G48Q,-0.826 ± 0.16
21,G48T,-0.91 ± 0.082
22,G48V,-0.756 ± 0.22
23,G48L,-0.399 ± 0.25
24,G48W,-0.609 ± 0.49
25,F50G,-0.826 ± 0.088

row,Variant,abundance fitness
1,F50K,-1.07 ± 0.2
2,F50V,-0.208 ± 0.049
3,F50P,-0.896 ± 0.33
4,F50Y,-0.831 ± 0.28
5,Y54I,-0.296 ± 0.12
6,Y54H,0.038 ± 0.07
7,L9W,-0.588 ± 0.07
8,L9Y,-0.701 ± 0.25
9,L9Q,-0.268 ± 0.074
10,S36R,-0.073 ± 0.033
11,S36Q,-0.024 ± 0.063
12,K32D,-0.242 ± 0.099
13,K32F,-0.373 ± 0.3
14,I31A,-0.346 ± 0.035
15,I31K,-0.478 ± 0.044
16,R42P,-0.897 ± 0.15
17,R42T,-0.114 ± 0.063
18,D16F,-0.19 ± 0.057
19,D16T,-0.024 ± 0.058
20,D16Q,-0.22 ± 0.07
21,G45T,-0.353 ± 0.088
22,G45C,-0.303 ± 0.086
23,A24R,-0.068 ± 0.044
24,P1V,0.027 ± 0.053
25,P1T,0.057 ± 0.05

row,Variant,abundance fitness
1,P1C,-0.374 ± 0.26
2,V55D,-0.777 ± 0.23
3,V55N,-0.632 ± 0.44
4,V55T,-0.111 ± 0.052
5,V55S,-0.732 ± 0.13
6,P35W,-0.231 ± 0.05
7,P35A,-0.07 ± 0.047
8,P35Q,-0.018 ± 0.049
9,P35C,-0.066 ± 0.061
10,P35Y,-0.266 ± 0.1
11,R44G,-0.137 ± 0.06
12,R44I,-0.759 ± 0.25
13,R44C,-0.139 ± 0.077
14,R44N,0.068 ± 0.088
15,I27W,-0.466 ± 0.048
16,Q47H,-0.149 ± 0.06
17,Q47W,-0.111 ± 0.093
18,Q47A,-0.222 ± 0.074
19,Q47I,-0.216 ± 0.12
20,Q47F,-0.167 ± 0.095
21,P51C,-0.316 ± 0.047
22,P51S,-0.287 ± 0.075
23,P51W,-0.143 ± 0.04
24,N23D,-0.047 ± 0.036
25,N23L,-0.065 ± 0.028

row,Variant,abundance fitness
1,N23M,-0.026 ± 0.047
2,E19N,-0.277 ± 0.093
3,E19G,-0.018 ± 0.04
4,E19F,-0.095 ± 0.078
5,E19W,-0.359 ± 0.039
6,D13A,-0.156 ± 0.051
7,D13G,-0.304 ± 0.056
8,D13V,-0.161 ± 0.056
9,D13P,-0.399 ± 0.083
10,L43Y,-0.328 ± 0.08
11,L43W,-0.706 ± 0.11
12,D34I,-0.939 ± 0.32
13,D34H,-0.264 ± 0.23
14,W39L,-0.512 ± 0.08
15,W39C,-0.316 ± 0.076
16,W39Y,-0.074 ± 0.082
17,W39G,-0.453 ± 0.039
18,W39A,-0.374 ± 0.071
19,W39N,-0.352 ± 0.11
20,C6D,-0.807 ± 0.12
21,C6L,-0.866 ± 0.069
22,C6R,-0.818 ± 0.051
23,C6P,-0.96 ± 0.31
24,S21D,-0.217 ± 0.036
25,S21F,-0.938 ± 0.27

row,Variant,abundance fitness
1,S21H,-0.931 ± 0.45
2,S21K,-0.266 ± 0.079
3,A8K,-0.902 ± 0.32
4,V3I,-0.145 ± 0.079
5,Q5Y,-0.007 ± 0.13
6,Q5W,-0.281 ± 0.063
7,Q5L,-0.135 ± 0.044
8,Q5T,0.01 ± 0.047
9,T56A,-0.075 ± 0.041
10,T56P,-0.534 ± 0.081
11,T56E,0.033 ± 0.038
12,T56K,-0.165 ± 0.088
13,G41S,-0.998 ± 0.12
14,G41R,-0.906 ± 0.1
15,L20M,-0.214 ± 0.046
16,L20V,-0.879 ± 0.11
17,K7A,-0.137 ± 0.053
18,L49V,-0.015 ± 0.056
19,L49D,-0.319 ± 0.094
20,L49G,-0.16 ± 0.046
21,Q2H,-0.208 ± 0.34
22,Q2L,-0.106 ± 0.07
23,Q2K,-0.09 ± 0.069
24,Q2A,-0.091 ± 0.036
25,N53W,-0.151 ± 0.058

row,Variant,abundance fitness
1,N53H,-0.012 ± 0.078
2,N53Q,-0.07 ± 0.088
3,N53C,-0.021 ± 0.054
4,Q15P,-0.484 ± 0.18
5,Q15L,-0.173 ± 0.04
6,Q15I,-0.172 ± 0.079
7,T17N,-0.423 ± 0.14
8,K57S,-0.323 ± 0.083
9,K57V,-0.257 ± 0.06
10,K57Y,0.151 ± 0.087
11,I30K,-1.04 ± 0.17
12,I30Q,-0.891 ± 0.19
13,A11H,-0.013 ± 0.078
14,D26E,-0.015 ± 0.046
15,D26P,-0.981 ± 0.42
16,D26N,-0.676 ± 0.2
17,D26H,-0.94 ± 0.42
18,T40H,-0.284 ± 0.16
19,T40N,-0.382 ± 0.11
20,T40M,0.052 ± 0.066
21,K46Y,-0.351 ± 0.19
22,N25R,-0.142 ± 0.033
23,N25H,-0.19 ± 0.082
24,I58R,-0.32 ± 0.058
25,I58M,0.015 ± 0.48

# Variants of: B2
# Experiment: as above
# Conditions: Homo sapiens
row,Variant,abundance fitness
1,D46I,-0.164 ± 0.066
2,D46L,-0.053 ± 0.033
3,D46M,-0.297 ± 0.092
4,D46Y,-0.436 ± 0.14
5,D46Q,-0.358 ± 0.1
6,D46H,0.119 ± 0.1
7,D46N,-0.11 ± 0.043
8,D46F,-0.361 ± 0.13
9,D46R,-0.286 ± 0.046
10,D46T,-0.292 ± 0.087
11,D46E,-0.117 ± 0.068
12,D46V,-0.064 ± 0.042
13,D46K,-0.166 ± 0.093
14,D46P,-0.069 ± 0.044
15,D46S,-0.167 ± 0.039
16,D46G,-0.119 ± 0.032
17,D46C,-0.31 ± 0.042

# Source: the Human Domainome abundance scans (Beltran et al. 2025)
